According to PMC2979009:

Biological target: subtilisin pS169 (A1C mutant of S189), labeled with Alexafluor 350 maleimide (Bacillus amyloliquefaciens)

- Kd: < 1 nM
Substance: P1 (residues 1−77 of pG12), the prodomain product left after cleavage (domain or fragment)
